Measurements from article PMC4671958.

Biological target: DNA polymerase theta helicase domain (Polθ-HLD), residues 1–894 (human), O75417
Assay: crystal structure; apo protein, 3.55 Å, four copies in the asymmetric unit; crystallized in 0.2 M NaCl, 0.1 M HEPES (pH 7.0), 20% PEG 6K, 10% ethylene glycol
Conditions: remark: other sources report otherwise

B1: DNA polymerase theta helicase domain (Polθ-HLD), residues 1–894, O75417 1-894 (domain or fragment)
chain: MNLLRRSGKRRRSESGSDSFSGSGGDSSASPQFLSGSVLSPPPGLGRCLKAAAAGECKPTVPDYERDKLLLANWGLPKAVLEKYHSFGVKKMFEWQAECLLLGQVLEGKNLVYSAPTSAGKTLVAELLILKRVLEMRKKALFILPFVSVAKEKKYYLQSLFQEVGIKVDGYMGSTSPSRHFSSLDIAVCTIERANGLINRLIEENKMDLLGMVVVDELHMLGDSHRGYLLELLLTKICYITRKSASCQADLASSLSNAVQIVGMSATLPNLELVASWLNAELYHTDFRPVPLLESVKVGNSIYDSSMKLVREFEPMLQVKGDEDHVVSLCYETICDNHSVLLFCPSKKWCEKLADIIAREFYNLHHQAEGLVKPSECPPVILEQKELLEVMDQLRRLPSGLDSVLQKTVPWGVAFHHAGLTFEERDIIEGAFRQGLIRVLAATSTLSSGVNLPARRVIIRTPIFGGRPLDILTYKQMVGRAGRKGVDTVGESILICKNSEKSKGIALLQGSLKPVRSCLQRREGEEVTGSMIRAILEIIVGGVASTSQDMHTYAACTFLAASMKEGKQGIQRNQESVQLGAIEACVMWLLENEFIQSTEASDGTEGKVYHPTHLGSATLSSSLSPADTLDIFADLQRAMKGFVLENDLHILYLVTPMFEDWTTIDWYRFFCLWEKLPTSMKRVAELVGVEEGFLARCVKGKVVARTERQHRQMAIHKRFFTSLVLLDLISEVPLREINQKYGCNRGQIQSLQQSAAVYAGMITVFSNRLGWHNMELLLSQFQKRLTFGIQRELCDLVRVSLLNAQRARVLYASGFHTVADLARANIVEVEVILKNAVPFKSARKAVDEEEEAVEERRNMRTIWVTGRKGLTEREAAALIVEEARMILQQDLVEM
With B1 the stoichiometry N was 4.
